Results: the supplement of paper PMC11780869

Test system: Bacillus subtilis
Assay: cleaved RNA product abundance (RNA/gDNA barcode ratio) relative to median wild-type variant (ratio to wild type); higher = more accumulation of the downstream cleavage product
Outline: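 Truncated aprE or tetM reporter mRNAs with barcoded RNase Y cleavage-site windows, mutagenized from oligos at a 9% error rate, sat in the B. subtilis chromosome. Cells grew in LB at 37°C from OD600 0.0003 to 0.3. Gel-selected cleaved RNA was reverse transcribed and its barcodes sequenced with those from genomic DNA, collapsing by UMI. Cleaved product abundance equals the RNA:gDNA barcode ratio per construct over the median construct with the unmutated site.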

[1] = experiment (reporter, strain, medium): exp 8a: truncated aprE reporter, strain BJT201 with 2% xylose (RNase J1 expressed), cleavage site: glnRA (positions -5 to +31 mutated)
[2] = experiment (reporter, strain, medium): exp 2b: truncated aprE reporter, strain BJT200, cleavage site: cggR-gapA (positions -7 to +36 mutated)
[3] = experiment (reporter, strain, medium): exp 4a: truncated aprE reporter, strain BJT201 with 2% xylose (RNase J1 expressed), cleavage site: cggR-gapA (positions -7 to +36 mutated)
[4] = experiment (reporter, strain, medium): exp 6: tetM reporter, strain 168, cleavage site: cggR-gapA (positions -7 to +36 mutated)

| Sequence | cleaved RNA product abundance [1] | cleaved RNA product abundance [3] | also measured |
| --- | --- | --- | --- |
| CGACATGTCCCGCTTCTTTCATTAATCCGTTAGCAACTGTATTGCTATATACATTTACATTTTAAGAGGAGGAAT | 1.47 |  |  |
| ACAGACGAAGGAGCCGCAAAGATGATATTAAGGGATGAATAATCCCTCAATATAAATATCTCTCACTTATTTAAA |  | 0.676 | cleaved RNA product abundance [2]: 0.664 |
| CGACATGTCCCGCTTCTTTCATTAATCCGTTACCAACTGTTTTGATATATACATTTACCTTTTAAGAGGAGGAAT | 0.276 |  |  |
| CGACATGTCCCGCTTCTTTCATTAATCCGTTATCAACTGTTTTGCTATATACATTTGCCTTTTAAGAGGAGGAAT | 0.223 |  |  |
| CGACATGTCCCGCTTCTTTCATTAATTCGTTAGCAACTGTTTTGCTATATACAATTACCTTTTAAGAGGAGGAAT | 1.18 |  |  |
| ACAGACGAAGGAGCCGCAAAGAAGTTATTAAGGGACGAATAATCCCTCAATATATATATCTCTCACTTATTTAAA |  | 0.771 | cleaved RNA product abundance [2]: 0.629 |
| CGACATGTCCCGCTTCTTTCATTAATCCGTTAGCAACTGTTTTGCTTTATACATTTACCTTTTAAGAGGAGGAAT | 0.338 |  |  |
| ACAGACGAAGGAGCCGCAAAGAACATATTAAGGGATGAATAATCCCTCAATATAAATATCTCTCACTTATTTAAA |  | 0.499 | cleaved RNA product abundance [2]: 0.607 |
| ACAGACGAAGGAGCCGCAAAGAAGTTATTATGGGATGAATAATCCATCAATATAAATATCTCTCACTTATTTAAA |  | 0.236 |  |
| ACAGACGAAGGAGCCGCAAAGAAGTAATTAAGGGATGAATATTCCCTCAATATAAATATCTCTCACTTATTTAAA |  | 0.293 |  |
| ACAGACGAAGGAGCCGCAAAGAAGTTATTAAGGGATGAATAATCGCACAATATAAATATCTCTCACTTATTTAAA |  | 0.0643 |  |
| ACAGACGAAGGAGCCGCAAAGAAGTTATTAAGGGATGAATAATCCTTCAATATAAACATCTCTCACTTATTTAAA |  | 0.33 | cleaved RNA product abundance [2]: 0.415 |
| ACAGACGAAGGAGCCGCAAAGAAGCTATTAAGGGATGAATACTCCCTCAATATAAATATCTCTCACTTATTTAAA |  | 0.458 |  |
| CGACATGTCCCGCTTCTTTCATTAATCCGTTAGCAACTGTTTAGCTATATACATTTGCCTTTTAAGAGGAGGAAT | 0.326 |  |  |
| ACAGACGAAGGAGCCGCAAAGAAGTTATTAAGGGTTGAGTAATCCCTCAATATAAATATCTCTCACTTATTTAAA |  | 0.375 |  |
| ACAGACGAAGGAGCCGCAAAGAAGTTATTAAGGGATGAATAATCCCTCAATATAAATACCTCTCACTTATTTAAA |  | 0.56 | cleaved RNA product abundance [2]: 0.69; cleaved RNA product abundance [4]: 0.593 |
| CGACATGTCCCGCTTCTTTCATTATTCCGTTAGCAATTGTTATGGTATATACAATTATCTTTTAAGAGGAGGAAT | 0.256 |  |  |
| CGACATGTCCCGCTTCTTTCATTAATCCGTTAGCAACTGTTTTGGTATATACATTTACCTTTTAAGAGGAGGAAT | 0.237 |  |  |
| ACAGACGAAGGAGCCGCAAAGAAGTTATTAAGGGATGAATAATCCCTCAATATAAATCTCTCTCACTTATTTAAA |  | 0.679 | cleaved RNA product abundance [2]: 0.652; cleaved RNA product abundance [4]: 0.701 |
| ACAGACGAAGGAGCCGCAAAGAAGTTATTAAGGGATGAACAATCCCTAAATATAAATATCTCTCACTTATTTAAA |  | 0.62 | cleaved RNA product abundance [2]: 0.33 |
| ACAGACGAAGGAGCCGCAAAGAAGTTATTAAGGGATGAATATTCCGTCAATATAAATATCTCTCACTTATTTAAA |  | 0.194 |  |

| Sequence | cleaved RNA product abundance [1] | cleaved RNA product abundance [3] | also measured |
| --- | --- | --- | --- |
| CGACATGTCCCGCTTCTTTCATTAATCCGTTACCAACTGTTTTGCTATATACATTTATCTTTTAAGAGGAGGAAT | 0.306 |  |  |
| ACAGACGAAGGAGCCGCAAAGAAATTATTAAGCGATTAATAATCCCTCAATATAAATATCTCTCACTTATTTAAA |  | 0.0984 |  |
| ACAGACGAAGGAGCCGCAAAGAAGTTATTAAGGGATTAATAATCCCACAATATAAATATCTCTCACTTATTTAAA |  | 0.347 | cleaved RNA product abundance [2]: 0.238 |
| ACAGACGAAGGAGCCGCAAAGAAATAATTAAGCGATGAATAATCCCTCAATATAAATATCTCTCACTTATTTAAA |  | 0.166 |  |
| ACAGACGAAGGAGCCGCAAATAAATAATTAAGGGATGAATAATCCCTCAATATAAATATCTCTCACTTATTTAAA |  | 0.336 |  |
| ACAGACGAAGGAGCCGCAAATAAGTTATTAAGGGGTGAATAATCCCTCAATATAAATATCTCTCACTTATTTAAA |  | 0.273 |  |
| CGACATGTCCCGCTTCTTTCATTAATCCGCCAGCAACTGTTTTGCTATATAGATTTACCTTTTAAGAGGAGGAAT | 0.284 |  |  |
| ACAGACGAAGGAGCCGCAAAAAAGTTTTTAAGGGATGAATAATCCCTCAATATAAATATCTCTCACTTATTTAAA |  | 0.435 | cleaved RNA product abundance [2]: 0.281 |
| CGACATGTCCCGCTTCTTTCATTAATCCGTTAGCAACTGTTTTGCTATATAAATTAACCTTTTAAGAGGAGGAAT | 1.01 |  |  |
| CGACATGTCCCGCTTCTTTCATTAATCCTTTAGCAACAGTTTTGCTATATACATTTACCTTTTAAGAGGAGGAAT | 0.115 |  |  |
| ACAGACGAAGGAGCCGCAAAGAAGTTATCAAGGTATGAATAATCCCTCAATATAAATATCTCTCACTTATTTAAA |  | 0.169 |  |
| ACAGACGAAGGAGCCGCAAAGAAGTTATTAAGGGATGAAGAATCCCTAAATATAAATATCTCTCACTTATTTAAA |  | 0.44 |  |
| CGACATGTCCCGCTTCTTTCATTATTCCGTTAACAACTGTTTTGCTATATACATTTATCTTTTAAGAGGAGGAAT | 0.27 |  |  |
| ACAGACGAAGGAGCCGCGAAGAAGTTATTAAGGGATGAATAATCCCTCAATATAAATATCTCTCACTTATTTAAA |  | 0.87 | cleaved RNA product abundance [2]: 0.919; cleaved RNA product abundance [4]: 0.885 |
| CGACATGTCCCGCTTCTTTCATTAATCCCTTAGCAACTGTTTGGCTATATACATTTACCTTTTAAGAGGAGGAAT | 0.204 |  |  |
| ACAGACGAAGGAGCCGCAAAGAAGTTCTGAAGGGATGAATAATCCCTCAATATAAATATCTCTCACTTATTTAAA |  |  | cleaved RNA product abundance [2]: 0.193 |
| ACAGACGAAGGAGCCGCAATGAAGTTATTAAGGGATGAATACTCCCTCAATATAAATATCTCTCACTTATTTAAA |  |  | cleaved RNA product abundance [2]: 0.379 |
| CGACATGTCCCGCTTCTTTCATTAATCCGTTAGCAACTGTTTTGCTATATTCATATACCTTTTAAGAGGAGGAAT | 0.449 |  |  |
| CGACATGTCCCGCTTCTTTCATTAATCCGTTAGCAATTGTTTTGTTATATACATTTACCTTTTAAGAGGAGGAAT | 0.425 |  |  |
| CGACATGTCCCGCTTCTTTCATTATTCCCTTAGCAACTGTTTTGCTATATACATTTACCTTTTAAGAGGAGGAAT | 0.221 |  |  |
